According to article PMC4558601, “Architecture of the Synaptophysin/Synaptobrevin Complex: Structural Evidence for an Entropic Clustering Function at the Synapse” (Scientific Reports, 2015):

Molecular target: the molecule itself
Test: SEC + other: SDS-PAGE densitometry and western blot of the co-purified native complex; native SYP/VAMP2 complex purified from calf brain synaptic vesicles in high cholesterol; Sephacryl S-300 in 20 mM NaH2PO4 pH 6.8, 0.2% Brij-35, 0.1% cholesterol, 40 mM sucrose; fractions analysed by SDS-PAGE, silver stain, western blot, densitometry

B1: synaptophysin (SYP), native, from calf brain (natural protein, bovine (endogenous in calf brain), UniProt P20488 1-313, looked up)
chain: MLLLADMDVVNQLVAGGQFRVVKEPLGFVKVLQWVFAIFAFATCGSYSGELQLSVDCANKTKSDLNIEVEFEYPFRLHEVYFEAPTCQGDPKKIFLVGNYSSSAEFFVTVAVFAFLYSMGALATYIFLQNKYRENNKGPMLDFLATAVFAFMWLVSSSAWAKGLSDVKMATDPENIIKGMHVCHQPGNTCKELRDPVTSGLNTSVVFGFLNLVLWVGNLWFVFKETGWAAPFLRAPPGAPEKQPAPGDAYGQAGYGQGPGGYGPQDSYGPQGGYQPDYGQPASSGGGGYGPQGDYGQQGYGPQGAPTSFSNQM
notes: synaptophysin (SYP), bovine, native protein isolated from calf brain synaptic vesicles together with VAMP2; 4-pass integral membrane protein; Endogenous protein, co-purified with VAMP2 as a native complex; source: purified from calf brain synaptic vesicles (Triton X-100 extract with cholesterol; hydroxyapatite/celite flow through, anion exchange, size exclusion)
**Q.** Which “stoichiometry N” value does the source give for B1 here?
**A.** 6
